Results on one molecule are retold here after paper PMC9792452.

In general, stoichiometry N refers to the number of molecules, sites or subunits per partner or assembly.

In this assay the target is T1, Interferon regulatory factor 3 (human (endogenous in A375)), Q14653.
T1 chain: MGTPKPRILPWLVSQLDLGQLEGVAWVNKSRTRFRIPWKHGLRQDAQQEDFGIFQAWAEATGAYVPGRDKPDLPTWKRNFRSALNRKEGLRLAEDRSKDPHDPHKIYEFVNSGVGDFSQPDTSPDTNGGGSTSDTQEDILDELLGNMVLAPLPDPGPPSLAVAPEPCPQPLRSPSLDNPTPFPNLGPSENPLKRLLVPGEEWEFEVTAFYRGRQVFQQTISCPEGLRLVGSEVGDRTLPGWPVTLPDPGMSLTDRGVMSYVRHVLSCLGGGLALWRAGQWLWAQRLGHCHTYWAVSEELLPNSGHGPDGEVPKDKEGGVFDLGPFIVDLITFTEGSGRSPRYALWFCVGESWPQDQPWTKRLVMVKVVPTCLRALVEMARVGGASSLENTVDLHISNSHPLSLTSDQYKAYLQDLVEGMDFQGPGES
Briefly: cross-linking; covalent cross-link formed in cells (TG2-dependent), seen by Western blot of SDS-polyacrylamide gels under denaturing conditions; A375 cells treated with doxorubicin 5 μM for 6, 16 and 24 h; HeLa cells too. Particulars: remark: other sources report otherwise.

B1: Interferon regulatory factor 3, Q14653 1-427 (natural protein)
chain: MGTPKPRILPWLVSQLDLGQLEGVAWVNKSRTRFRIPWKHGLRQDAQQEDFGIFQAWAEATGAYVPGRDKPDLPTWKRNFRSALNRKEGLRLAEDRSKDPHDPHKIYEFVNSGVGDFSQPDTSPDTNGGGSTSDTQEDILDELLGNMVLAPLPDPGPPSLAVAPEPCPQPLRSPSLDNPTPFPNLGPSENPLKRLLVPGEEWEFEVTAFYRGRQVFQQTISCPEGLRLVGSEVGDRTLPGWPVTLPDPGMSLTDRGVMSYVRHVLSCLGGGLALWRAGQWLWAQRLGHCHTYWAVSEELLPNSGHGPDGEVPKDKEGGVFDLGPFIVDLITFTEGSGRSPRYALWFCVGESWPQDQPWTKRLVMVKVVPTCLRALVEMARVGGASSLENTVDLHISNSHPLSLTSDQYKAYLQDLVEGMDFQGPGES
B1 returned a stoichiometry N of 2.
